Experiment: soluble on expression in E. coli; label from the status in PepcDB or PDB records

Row | Sequence | soluble on expression in E. coli
1 | MGSDKIHHHHHHMINLSKKLIRQVAQANAKFGLIKDGDRVLLGLSGGKDSLALAHLLNRMQAHAPFKFELEAVTLSYGMGEDYSHLHAHCEEHGIKHSVLDSNIYEVSGDTIRENSSFCSYFSRMRRGALYTYALEKGFNKLAIAHHLDDAAESFFMNFIHNGALRTLAPIYQSKRGITVIRPLIFVRERQLRDNATQNELSVIGNEFCPGMKLSEKNVKFPHAREEAKQLLANLEKDHPKLFTSLKTAFANLHTESFWLQKA | not soluble
2 | PHFLILNGPNVNRLGSREPEVFGRQTLTDIETDLFQFAEALHIQLTFFQSNHEGDLIDAIHEAEEQYSGIVLNPGALSHYSYAIRDAVSSISLPVVEVHLSNLYAREEFRHQSVIAPVAKGQIVGLGAEGYKLAVRYLLSQQG | soluble
3 | METAVEVRAPAAAAWELLTDTRRWSEWGPSVSGVECPERFIGPGTIGWVRTVVGLRLPFRITEFEPGRRWCWSVAGIPATGHRVEPLGQERCRVVFEVPMPAAPYLAVCRVAALRIRSILEGLEHHHHHH | not soluble
4 | MHHHHHHSSGVDLGTENLYFQSMSSVTASAAPGTASLVPDYWIDGSNRDALSDFFEVESELGRGATSIVYRCKQKGTQKPYALKVLKKTVDKKIVRTEIGVLLRLSHPNIIKLKEIFETPTEISLVLELVTGGELFDRIVEKGYYSERDAADAVKQILEAVAYLHENGIVHRDLKPENLLYATPAPDAPLKIADFGLSKIVEHQVLMKTVCGTPGYCAPEILRGCAYGPEVDMWSVGIITYILLCGFEPFYDERGDQFMFRRILNCEYYFISPWWDEVSLNAKDLVRKLIVLDPKKRLTTFQALQHPWVTGKAANFVHMDTAQKKLQEFNARRKLKAAVKAVVASSRLG | soluble
5 | MFRLSALYRYPIKSSAAESLERVALDALGVVGDRRWMAVDTETGRFFTQRLLPQLGRIQARWAAPEVLRLNAPGMSELSLEVPAADANLRGVTVWRDTLQAPDAGDAAADWLTRFLGRPTRLVHIPEARARQVDTGYAEPGQKVHFADGFPLLLIGQASLDDLSQRVGRPLEMLRFRPNLVVEGSAAFAEDGWKRIRIGSVEFVVAKPCSRCILTTLDPATGERNEDREPLTTLKTYREKDGAVLFGQNLIALGQGSLEVGMPVEILD | soluble
6 | MAHHHHHHMAAGSAEEAVALMKSAEKHSQKKFFKRPDWDAAASEYERAARIYTHLEDTNRATDAWRKASGAHQNAENNFFAARAMESLAVFLTEQSRKGMADDTSLLNNAVESYCDASKLYAFNEMFDRQADCLKKAAEIINPTKTIVTGLPATEAGSSQVKQRMQQVVGLFREGVSVLEEHIEDKPVVAVQLSELYRNWMLTHLHNGDVKGAVEVLEEQLGIRADPHKKGVFERLAQPHNSAKAGLEITVLCLSCGDDVWARQEMNKLRGVPGFSTSNEEATANALISSFEERDEEQLRAAMKNQTLQFITIDISRMSRKLKIQFSAPQRTNMTSSSLPNPSLPNEQQQGEEQQEADIDPEEDIR | not soluble
7 | MYQVIKMYGDWEPWWFIDGWQDDIIDEQQFSDWQEALDYFNQEWQRMKAIFPSYHSQKNLLATFWEKEDKRWCEDCDEDLQQFHSLLLLKNKDIVPSNNYIPEFEQRNDSPQVAYLCKLNLLEHHHHHH | soluble
8 | MVEQIKDKLGRPIRDLRLSVTDRCNFRCDYCMPKEVFGDDFVFLPKNELLTFDEMARIAKVYAELGVKKIRITGGEPLMRRDLDVLIAKLNQIDGIEDIGLTTNGLLLKKHGQKLYDAGLRRINVSLDAIDDTLFQSINNRNIKATTILEQIDYATSIGLNVKVNVVIQKGINDDQIIPMLEYFKDKHIEIRFIEFMDVGNDNGWDFSKVVTKDEMLTMIEQHFEIDPVEPKYFGEVAKYYRHKDNGVQFGLITSVSQSFCSTCTRARLSSDGKFYGCLFATVDGFNVKAFIRSGVTDEELKEQFKALWQIRDDRYSDERTAQTVANRQRKKINMNYIGG | soluble
9 | MFEITRPPGVRAHVGVIGGSGLYDPGIVENPVEVKVSTPYGNPSDFIVVGDVAGVKVAFLPRHGRGHRIPPHAINYRANIWALKALGVKWVISVSAVGSLREDYRPGDFVVPDQFIDMTKNRRHYTFYDGPVTVHVSMADPFCEDLRQRLIDSGRRLGYTVHERGTYVCIEGPRFSTRAESRVWKDVFKADIIGMTLVPEINLACEAQLCYATLAMVTDYDVWADRPVTAEEVERVMISNVERARRMLYDVIPKLAGEPELERCSCCRALDTAAI | soluble
10 | MIDQHQYIERESGSVCNERLFGDRLIRLLYHGARENAPFLFKMATSSWSSGLLGFINFDLPFGSNRRFLEECGVDLDECLDPPESLDTPRKVFERRIRYEQCRPMPEVQWAVVSPADARVLVGSFRDTSALFLKEKFFDFEELLGRHKEEWLRAFTGGEFAVFRLTPDKYHYNHTPVAGTVRDIYEIDGGYHSCNPGAVVIEATPFSKNRRVVTVIDTDVPGGTGVGLVAMIEVVALMIGQIVQCYSYEGYTAPRPVEPGMFLRRGVPKSLYRPGSSTDVLIFQRDRMHFADDIVRNMHDTRAASRFSHGFGRPLVETDVKVRSLIAVAVTNLEHHHHHH | not soluble
11 | MKVDVDEKTYIITMANDITKLYEENKRNLHYSITDPLTGAYNRKYLNDRFDIFIGDYIVLIDLDNFKMINDYEGHNVGDKILCDFVSLLNKELINSTSIIRLGGDEFIVIFSSDVDKNYVYSQLEALRENFLKVFSKYKYLSFSYGVDTVKRNLKLTIVELDKKMYKNKEKNKKKFDKNLEHHHHHH | soluble
12 | GCPHDCVFCNQNTITGEESKVNGDYVKSTVEDYLDTIPNKSATIEISFFGGTFTAINIEKQKELLSVARHYKEIGKIKYIRLSTRPDYIDDEILTNLKNYSVDIIELGVQSLDSEVLLKSGRGHTKEDVVKASRLIKKYGFTLGHQIMLGLPGDNAEKDIETTRKVICMKPNICRIYPALVIKDTAMEKMYNRGIYKPYDIEECVEI | not soluble
13 | MSKIIGIDLGTTNSCVAVLEGGEVKVIPNPEGNRTTPSVVAFKNGERLVGEVAKRQAITNPNTIISIKRHMGTDYKVEIEGKQYTPQEISAIILQYLKSYAEDYLGEPVTRAVITVPAYFNDAQRQATKDAGRIAGLEVERIINEPTAAALAYGLDKEEDQTILVYDLGGGTFDVSILELGDGVFEVKATAGDNHLGGDDFDQVIIDYLVNQFKQEHGIDLSKDKMALQRLKDAAEKAKKELSGVTQTQISLPFISANENGPLHLEMTLTRAKFEELSAHLVERTMGPVRQALQDAGLTPADIDKVILVGGSTRIPAVQEAIKRELGKEPHKGVNPDEVVAIGAAIQGGVIAGEVKDVVLLDVTPLSLGIETMGGVFTKLIERNTTIPTSKSQVFTTAADNQTTVDIHVLQGERPMAADNKSLGRFQLTGIPPAPRGVPQIEVTFDIDANGIVHVRAKDLGTNKEQSITIKSSSGLSEEEIQRMIKEAEENAEADRKRKEAAELRNEAD | soluble
14 | MSLDFATEYVYPAFSELTGTDKIVAFGDHSHKCPIYVPQTPPCTAECPAGEDIRAINRFLNGTDPSDDPLKSAWETATDTNPFPAVMGRICPHPCQSKCNRGVHDESVAINAVEQVLGNYGIEHNLKLKGPGADTGKRVAIIGGGPAGLSAAYQLRRKGHAVTIYDANEKLGGMVLYGIMGYRVDRKVLEAEIGRIIELGVETKMGVTIGKDITLEQLEAEYDAVFIAVGAQKGRALPVPGFEGTPGATNAIDFLKSYEVLGDDIPVGKHVVVIGDGNVSMDVARLALRLGSQATIISGVPREEMACFENEFDDAKNEGTTMHFLTGTVEVLGGASGVTGLRCTKMVKKEKGEEGWNSPIPFLRYKSNGESFEIEADMVVAAIGQATDLSGLGSAASGPWLKVDRNFRIPGREKLFGGGDALKVDLITTAVGHGRKAAYAIDAFLKGEPMPEEPYREITKPHKQDLLYFLHTPQAKRTSIKPEVVVGNHDELLEALTPEQAVTESKRCMSCGFCFDCKQCVSFCPQEAITRFRDNPAGEKVYTNYAKCVGCHLCSLVCPCGYIQMGMGDGEGHHHHHH | not soluble
15 | MSAATATRSQLALQSYLDALLQEATFEDLEPLVETPPAPAPAPLKPVALAVAEVATPAPALETLPVDHGFDEFEAAVLEEQVRDARLVPPAPAALLDEPTTLRELPVEPRPHEVIELRVPSAPASVGEPPLLDLPLLDDGRPAWAAEPFECLLFD | soluble
16 | MNEILKTEDEVVRWSVKKINDDTTLIEFELKRDLVPEDLKKINPPDAVKNKFANTFIVLSGRGPIWLYGFLIHFYHPTKGIGVFDPRLGGAVVVSSHSPNKKVGDVIKWEG | not soluble
17 | MGSDKIHHHHHHMAATFKMVGVIRFSLLTPTFNADRYPDLEAAAAAIFAPDRMALRLHLFETLCLPSLVRQSDAAFHLVVATSDRLPAVILQHLQALLAPHDHMQLIQFAPENHYQILKEAYRAVPQQGESHRILFRLDDDDALDRHYVARCKRLAAGLVPLQTEAVSPIALAFNRGYYLIREEGQPPVVMDSCERAPLSAGTALVQPIAARGNPYRYNHRKFAQHYTLYSDISVPSFVRTVHGDNHSTPAMMGLTARQSDAEMDADLQRHFDLSLSDLKAI | not soluble
18 | MSTTFAARLNRLFDTVYPPGRGPHTSAEVIAALKAEGITMSAPYLSQLRSGNRTNPSGATMAALANFFRIKAAYFTDDEYYEKLDKELQWLCTMRDDGVRRIAQRAHGLPSAAQQKVLDRIDELRRAEGIDA | soluble
19 | MIDDDGYRPNVGIVICNRQGQVMWARRFGQHSWQFPQGGINPGESAEQAMYRELFEEVGLSRKDVRILASTRNWLRYKLPKRLVRWDTKPVCIGQKQKWFLLQLVSGDAEINMQTSSTPEFDGWRWVSYWYPVRQVVSFKRDVYRRVMKEFASVVMSLQENTPK | soluble
20 | MEKTLETVPLERKKREKEQFRKLFIGGLSFETTEESLRNYYEQWGKLTDCVVMRDPASKRSRGFGFVTFSSMAEVDAAMAARPHSIDGRVVEPKRAVAREESG | soluble
21 | LSITDCRGAPLYEFRYPQQFYATFASVPPLLVHSLLFIENRDLLDPQQPLANPAVDWPRFVKAAWSQVAKMFALPGQSAGGSTLATQLEKYRHSPDGLTQSGSEKLRQMISASVRAYQPGAETLEVRQRVVRDYLNSVPLSAVPGHGEVHGLAEGLRVWFGVDFARTNQLLASGPTDQQGLADKALALREVLSLVIAQRRPSHYLAK | not soluble
22 | MRAVVLVPFLKQQRENRDAASAPAAPGRSVEAKLEEAKGLALAIDLEVTQGLVVPVNQPRPATLFGTGKIEEIGHLLDETNSGLVIVDHPLTPVQQRNLEKQWNAKVIDRTGLILEIFGRRASTKEGTLQVDLAHLNYQKGRLVRSWTHLERQRGGAGFMGGPGETQIEADRRLLQDRIVKLEKELEQVVRTRQLHRAKRRKVPHPIVALVGYTNAGKSTLFNRITGAGVLAEDMLFATLDPTLRRMKLPHGRTVILSDTVGFISDLPTHLVAAFRATLEEVLEA | not soluble
23 | MSLTKDPEWLTKEFAGNPIRTGRTIEDPDFPRIAITYSIQENEDNSKQIQDEMKDIIKDYNDYYHTAWSIEDIERYNGDINNRLARKKAEFKEFGKQIDLVIVVDRLLTGFDAPTIQTLFVDRNLSYANLIQAFSRTNRTYPGKTKGLIVTFRKPSTMEQNVKDATKLYSEAQEESDLVYPTYDESKKRFKKAHKLLTTLVPNPTDINEHSPLEIRIEFVKAFQELNNTYEALVTYDEYNDDMEKSKVLQEQINTLEEYIGVYNTVKGSLVDEGAQDGPGPDFSGIEFYGENAIKVYDIDSTYIDRLLGTYSANNQNIRDEIEKALQKLKKLEIVKDVYRAMLNAIDTKKIDSEEDILVVKRRFFTESYDKAIKEFANTWFVEGNELHLSAIQYVIGSDPIPNIRGIINSKQFDKYKAIHPDAKPLKYGPEMKRQWRKTLDEVIVPLADELREGHHHHHH | soluble
24 | SLKSLNHISLLCRSVEESISFYQNVLGFLPIRRPDSFDFDGAWLFGHGIGIHLLQSPEPEKLLKKTEINPKDNHISFQCESMEAVEKKLKEMEIEYVRAVVEEGGIQVDQLFFHDPDAFMIEICNCDSLPVIPLAGEMARSCSRLNIRQLVQPTQIHEG | soluble

Source: the DeepSol protein solubility set
